Assay results published in KR20150077887A (dated 2015).
Each block holds one binder with its values, some of them ahead of it.

Target: T1, NRS natively expressed in human cells (HeLa cell lysate) (human, UniProt O43776 1-548)
T1 construct: mature; Target of the western blot; also called human 세포에서 원래 발현된 NRS
T1 sequence (looked up): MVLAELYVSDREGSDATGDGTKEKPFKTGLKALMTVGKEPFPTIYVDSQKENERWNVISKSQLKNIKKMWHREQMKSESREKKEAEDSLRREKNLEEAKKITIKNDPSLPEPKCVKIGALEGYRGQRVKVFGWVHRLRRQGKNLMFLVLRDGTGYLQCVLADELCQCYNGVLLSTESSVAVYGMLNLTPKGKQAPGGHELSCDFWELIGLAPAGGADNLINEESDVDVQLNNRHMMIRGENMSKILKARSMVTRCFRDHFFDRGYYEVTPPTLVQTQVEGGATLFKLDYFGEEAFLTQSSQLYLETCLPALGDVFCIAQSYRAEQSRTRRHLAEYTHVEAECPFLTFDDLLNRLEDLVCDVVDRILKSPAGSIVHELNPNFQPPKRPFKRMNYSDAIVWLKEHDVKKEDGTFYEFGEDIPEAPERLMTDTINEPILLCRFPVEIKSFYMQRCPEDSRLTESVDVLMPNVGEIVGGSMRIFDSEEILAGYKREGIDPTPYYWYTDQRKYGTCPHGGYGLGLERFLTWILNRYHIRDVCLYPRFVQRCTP
Assay: western blot on HeLa cell lysate with periplasmic scFv (clones from phage panning on NRS), anti-HA-HRP detection

- binding result: binds
B1: SEQ ID NO 70 (scFv)
scFv: EVQLLESGGGLVQTGGSLRLSCAASGFTFSDYAMSWVRQAPGKGLEWVSGISYSGGSTYYADSVKGRFTISRDNSKNTLYLQMNSLRAEDTAVYYCAKNSRHFDYWGQGTLVTVSSGGGGSGGGGSGGGGSQSVLTQPPSASGTPGQRVTISCSGSSSNIGSNDVTWYQQLPGTAPKLLIYSNSHRPSGVPDRFSGSKSGTSASLAISGLRSEDEADYYCGAWDDSLNGYVFGGGTKLTVL
notes: It is probably the same molecule as one of Biocon-N1 to N5

- binding result: binds
B2: SEQ ID NO 42 (scFv)
scFv: EVQLLESGGGLVQPGGSLRLSCAASGFTFSNYSMSWVRQAPGKGLEWVSVISPGSGSKYYADSVKGRFTISRDNSKNTLYLQMNSLRAEDTAVYYCARTATIFDYWGQGTLVTVSSGGGGSGGGGSGGGGSQSVLTQPPSASGTPGQRVTISCTGSSSNIGSNYVSWYQQLPGTAPKLLIYADSQRPSGVPDRFSGSKSGTSASLAISGLRSEDEADYYCGTWDDSLSAYVFGGGTKLTVL
notes: as for B1
